Experimental data: article PMC5072618

Columns and labels:
[1] = biological target: IFI16 (gamma-interferon-inducible protein 16) (human (endogenous in HMVEC-d, HFF, BJAB, BCBL-1)) (UniProt Q16666); test: co-IP; whole cell lysates of KSHV infected HMVEC-d cells (4 h; 30 min, 4 and 24 h for the p300 blot); IP with anti-Ran, anti-IFI16, anti-STING or anti-ASC antibodies; cells untreated or electroporated with siC, sicGAS or siASC
[2] = biological target: IFI16 (gamma-interferon-inducible protein 16) (human (endogenous in HMVEC-d, HFF, BJAB, BCBL-1)) (UniProt Q16666); test: co-IP; whole cell lysates of KSHV infected HMVEC-d cells electroporated with siBRCA1 (48 h); IP with anti-IFI16 antibody

Sequence of UniProt Q16666 (Q16666 whole entry): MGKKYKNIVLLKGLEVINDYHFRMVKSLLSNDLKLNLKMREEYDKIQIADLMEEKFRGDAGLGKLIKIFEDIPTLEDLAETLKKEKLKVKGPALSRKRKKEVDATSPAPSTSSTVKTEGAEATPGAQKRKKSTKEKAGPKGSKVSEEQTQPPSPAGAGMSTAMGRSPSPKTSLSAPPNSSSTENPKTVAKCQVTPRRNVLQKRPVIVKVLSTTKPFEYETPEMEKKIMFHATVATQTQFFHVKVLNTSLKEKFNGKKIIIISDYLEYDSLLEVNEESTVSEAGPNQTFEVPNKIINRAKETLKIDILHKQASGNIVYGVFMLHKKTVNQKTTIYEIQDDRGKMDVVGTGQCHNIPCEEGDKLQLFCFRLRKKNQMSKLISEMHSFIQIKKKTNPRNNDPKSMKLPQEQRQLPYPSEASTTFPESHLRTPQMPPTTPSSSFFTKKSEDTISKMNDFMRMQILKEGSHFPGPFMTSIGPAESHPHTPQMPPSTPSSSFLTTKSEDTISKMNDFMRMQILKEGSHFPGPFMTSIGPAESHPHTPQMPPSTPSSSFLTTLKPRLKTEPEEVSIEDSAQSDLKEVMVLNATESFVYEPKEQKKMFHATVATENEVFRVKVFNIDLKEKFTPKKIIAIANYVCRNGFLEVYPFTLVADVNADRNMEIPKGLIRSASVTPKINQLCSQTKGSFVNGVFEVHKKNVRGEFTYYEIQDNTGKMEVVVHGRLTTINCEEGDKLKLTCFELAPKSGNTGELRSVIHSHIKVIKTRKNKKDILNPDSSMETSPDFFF

reduction of the IFI16-H2B co-precipitate on cGAS knockdown [1]: 25% | reduction of the IFI16-H2B co-precipitate on BRCA1 knockdown [2]: 40%
Substance: histone H2B (from UniProt P62807 1-126) (natural protein)
